{"source": "paper PMC4736791", "about": "(Biophysics, 2015)", "target": "the molecule itself", "assay": "SAXS; nucleotide-free KaiC monomer (1.69 mg/ml) mixed with P-buffer containing ATP to 1 mM final; curve taken at 30°C 6 min after addition of ATP; monomer to hexamer"}
{"protein": "KaiC (natural protein, UniProt Q79PF4 1-519, looked up) MTSAEMTSPNNNSEHQAIAKMRTMIEGFDDISHGGLPIGRSTLVSGTSGTGKTLFSIQFLYNGIIEFDEPGVFVTFEETPQDIIKNARSFGWDLAKLVDEGKLFILDASPDPEGQEVVGGFDLSALIERINYAIQKYRARRVSIDSVTSVFQQYDASSVVRRELFRLVARLKQIGATTVMTTERIEEYGPIARYGVEEFVSDNVVILRNVLEGERRRRTLEILKLRGTSHMKGEYPFTITDHGINIFPLGAMRLTQRSSNVRVSSGVVRLDEMCGGGFFKDSIILATGATGTGKTLLVSRFVENACANKERAILFAYEESRAQLLRNAYSWGMDFEEMERQNLLKIVCAYPESAGLEDHLQIIKSEINDFKPARIAIDSLSALARGVSNNAFRQFVIGVTGYAKQEEITGLFTNTSDQFMGAHSITDSHISTITDTIILLQYVEIRGEMSRAINVFKMRGSWHDKAIREFMISDKGPDIKDSFRNFERIISGSPTRITVDEKSELSRIVRGVQEKGPES", "values": [{"measurement": "stoichiometry N", "result": "6.05 ± 0.08", "unit": "fold"}]}
